According to IntAct's records for PubMed 23010927:

B1: Multidrug efflux pump accessory protein AcrZ (Escherichia coli (strain K12)), P0AAW9 (parent)
chain: MLELLKSLVFAVIMVPVVMAIILGLIYGLGEVFNIFSGVGKKDQPGQNH
partner: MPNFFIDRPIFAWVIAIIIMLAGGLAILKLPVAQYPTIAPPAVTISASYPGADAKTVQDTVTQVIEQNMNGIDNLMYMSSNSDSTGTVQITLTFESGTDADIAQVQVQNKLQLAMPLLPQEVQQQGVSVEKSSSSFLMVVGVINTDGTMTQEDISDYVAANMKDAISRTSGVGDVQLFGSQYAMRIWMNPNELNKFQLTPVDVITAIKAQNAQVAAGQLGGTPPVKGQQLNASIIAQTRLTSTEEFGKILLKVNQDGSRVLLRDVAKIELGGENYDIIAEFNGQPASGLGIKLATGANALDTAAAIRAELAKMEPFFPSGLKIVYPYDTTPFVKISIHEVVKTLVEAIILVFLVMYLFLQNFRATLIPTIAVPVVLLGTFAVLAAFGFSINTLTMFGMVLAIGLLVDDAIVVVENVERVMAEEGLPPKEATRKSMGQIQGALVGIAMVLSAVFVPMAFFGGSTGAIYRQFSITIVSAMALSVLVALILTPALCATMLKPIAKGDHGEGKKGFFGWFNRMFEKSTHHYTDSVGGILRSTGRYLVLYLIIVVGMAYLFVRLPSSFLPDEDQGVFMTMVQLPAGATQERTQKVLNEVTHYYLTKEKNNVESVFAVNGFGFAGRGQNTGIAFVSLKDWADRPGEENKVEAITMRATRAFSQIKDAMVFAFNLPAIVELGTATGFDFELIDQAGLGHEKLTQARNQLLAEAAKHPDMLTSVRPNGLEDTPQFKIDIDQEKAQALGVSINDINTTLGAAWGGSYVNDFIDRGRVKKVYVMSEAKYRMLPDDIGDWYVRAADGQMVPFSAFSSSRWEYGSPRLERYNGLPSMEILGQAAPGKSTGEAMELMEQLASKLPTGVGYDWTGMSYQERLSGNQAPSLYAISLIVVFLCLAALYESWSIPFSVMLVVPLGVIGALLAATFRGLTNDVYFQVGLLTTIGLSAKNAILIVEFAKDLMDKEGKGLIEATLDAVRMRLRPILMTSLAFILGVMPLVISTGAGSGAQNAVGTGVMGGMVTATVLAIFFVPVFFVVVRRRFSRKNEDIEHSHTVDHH

Variants of: B1
Details: with acrb_ecoli acrB

Row | effect of a mutation on the interaction | Variant
1 | disrupting interaction | G30R
